Assay results: patent publication US20210292396A1

Tests used:
Experiment in all cases: cell-based or functional assay
[1] = molecular target: HIV Env of isolate ZM176.66 (HIV)
[2] = molecular target: Env of HIV isolate TZA125.17 (clade C) (HIV)
[3] = molecular target: Env of HIV isolate 3988.25 (clade B) (HIV)
[4] = molecular target: Env of HIV isolate ZM55.28a (clade C) (HIV)
[5] = molecular target: Env of HIV isolate A07412M1.vrc12 (clade D) (HIV)
[6] = molecular target: Env of HIV isolate 6545.v4.c1 (clade AC) (HIV)
[7] = molecular target: Env of HIV isolate SS1196.01 (clade B) (HIV)
[8] = molecular target: HIV Env of isolate 6631.v3.c10 (HIV)
[9] = molecular target: HIV Env of isolate 0921.v2.c14 (HIV)
[10] = molecular target: Env of HIV isolate CH181.12 (clade BC) (HIV)
[11] = molecular target: Env of HIV isolate Q842.d12 (clade A) (HIV)
[12] = molecular target: Env of HIV isolate Q23.17 (clade A) (HIV)
[13] = molecular target: Env of HIV isolate 0439.v5.c1 (clade A) (HIV)
[14] = molecular target: HIV Env of isolate DU123.06 (HIV)
[15] = molecular target: Env of HIV isolate T253-11 (clade AG) (HIV)
[16] = molecular target: Env of HIV isolate 3468.v1.c12 (clade AD) (HIV)
[17] = molecular target: Env of HIV isolate CAP45.G3 (clade C) (HIV)
[18] = molecular target: Env of HIV isolate 3873.v1.c24 (clade C) (HIV)
[19] = molecular target: Env of HIV isolate CAAN.A2 (clade B) (HIV)
[20] = molecular target: Env of HIV isolate 45_01dG5 (clade B) (HIV)
[21] = molecular target: HIV Env of isolate 25711-2.4 (HIV)
[22] = molecular target: Env of HIV isolate ZM106.9 (clade C) (HIV)
[23] = molecular target: Env of HIV isolate CNE14 (clade B) (HIV)
[24] = molecular target: Env of HIV isolate R2184.c4 (clade AE) (HIV)
[25] = molecular target: Env of HIV isolate MB539.2B7 (clade A) (HIV)
[26] = molecular target: HIV Env of isolate CNE40 (HIV)
[27] = molecular target: Env of HIV isolate X1254.c3 (clade G) (HIV)
[28] = molecular target: Env of HIV isolate ZM215.8 (clade C) (HIV)
[29] = molecular target: Env of HIV isolate HXB2.DG (clade B) (HIV)
[30] = molecular target: Env of HIV isolate 231965.c01 (clade D) (HIV)
[31] = molecular target: Env of HIV isolate 6631.v3.c10 (clade C) (HIV)
[32] = molecular target: Env of HIV isolate 3301.v1.c24 (clade AC) (HIV)
Envelope of SVA.MLV = molecular target: Envelope of SVA.MLV
[33] = molecular target: HIV Env of isolate CNE15 (HIV)
[34] = molecular target: Env of HIV isolate CNE56 (clade AE) (HIV)
[35] = molecular target: HIV Env of isolate ZM233.6 (HIV)
[36] = molecular target: Env of HIV isolate DJ263.8 (clade AG) (HIV)
[37] = molecular target: Env of HIV isolate BI369.9A (clade A) (HIV)
[38] = molecular target: Env of HIV isolate CNE7 (clade BC) (HIV)
[39] = molecular target: Env of HIV isolate REJO.67 (clade B) (HIV)
[40] = molecular target: Env of HIV isolate DU151.02 (clade C) (HIV)
[41] = molecular target: HIV Env of isolate X2088.c9 (HIV)
[42] = molecular target: Env of HIV isolate CNE8 (clade AE) (HIV)
[43] = molecular target: Env of HIV isolate SO18.18 (clade C) (HIV)
[44] = molecular target: Env of HIV isolate 271-11 (clade AG) (HIV)
[45] = molecular target: Env of HIV isolate ZM135.10a (clade C) (HIV)
[46] = molecular target: Env of HIV isolate 0330.v4.c3 (clade A) (HIV)
[47] = molecular target: Env of HIV isolate DU422.01 (clade C) (HIV)
[48] = molecular target: HIV Env of isolate ZM215.8 (HIV)
[49] = molecular target: HIV Env of isolate 3817.v2.c59 (HIV)

B1: ePGT121.15 (ePGT121.15.H6 VH and ePGT121.15.L1 VL) (antibody, V domains shown)
VH: QMQLQESGPGLVKPGETLSLTCSVSGASISSSYWSWLRETPGKGLEWIGYTHHSGDTNYAPSLKSRVHLGLHPSKNQVSLSLTSVTAADTAVYYCARTLHGRRIYGVVAFNEFFTYFYWEVWGKGTQVTVSS
VL: SDISVAPGETVRISCGGESIGSRAVQWYQHRAGQAPKLIIYNNQDRPPGIPERFSGSPDIDFGTTATLTITNVEAGDEATYYCHIWDSRRPTNWVFGGGTTLTVL
With B1 the IC80, pseudovirus neutralization [1] was 0.31 µg/mL, the IC50, pseudovirus neutralization [2] was 0.07 µg/mL and the IC50, pseudovirus neutralization [3] was 4 ng/mL. The IC50, pseudovirus neutralization [4] was 9 ng/mL, the IC50, pseudovirus neutralization [5] was 5 ng/mL and the IC50, pseudovirus neutralization [6] was greater than 50 µg/mL. The IC50, pseudovirus neutralization [7] was 3 ng/mL, the IC80, pseudovirus neutralization [8] was 0.065 µg/mL and the IC80, pseudovirus neutralization [9] was 5.71 µg/mL. For the same binder, the IC50, pseudovirus neutralization [10] was 3 ng/mL, the IC50, pseudovirus neutralization [11] was 3 ng/mL and the IC50, pseudovirus neutralization [12] was 3 ng/mL. The IC50, pseudovirus neutralization [13] was 4.72 µg/mL, the IC80, pseudovirus neutralization [14] was 8 ng/mL and the IC50, pseudovirus neutralization [15] was 9 ng/mL. It also gave an IC50, pseudovirus neutralization [16] of 2 ng/mL, an IC50, pseudovirus neutralization [17] of 2.25 µg/mL and an IC50, pseudovirus neutralization [18] of 4 ng/mL. The IC50, pseudovirus neutralization [19] was 5 ng/mL, the IC50, pseudovirus neutralization [20] was 3 ng/mL and the IC80, pseudovirus neutralization [21] was 8 ng/mL. It also gave an IC50, pseudovirus neutralization [22] of 2 ng/mL, an IC50, pseudovirus neutralization [23] of 2 ng/mL and an IC50, pseudovirus neutralization [24] greater than 50 µg/mL. The IC50, pseudovirus neutralization [25] was greater than 50 µg/mL, the IC80, pseudovirus neutralization [26] was 0.082 µg/mL and the IC50, pseudovirus neutralization [27] was 4 ng/mL. It also gave an IC50, pseudovirus neutralization [28] of 0.017 µg/mL, an IC50, pseudovirus neutralization [29] of 0.011 µg/mL and an IC50, pseudovirus neutralization [30] of 12.5 µg/mL. The IC50, pseudovirus neutralization [31] was 0.015 µg/mL, the IC50, pseudovirus neutralization [32] was 6 ng/mL and the IC80, pseudovirus neutralization (Envelope of SVA.MLV) was greater than 50 µg/mL. It also gave an IC80, pseudovirus neutralization [33] greater than 50 µg/mL, an IC50, pseudovirus neutralization [34] greater than 50 µg/mL and an IC80, pseudovirus neutralization [35] of 0.073 µg/mL. The IC50, pseudovirus neutralization [36] was 0.013 µg/mL, the IC50, pseudovirus neutralization [37] was 2 ng/mL and the IC50, pseudovirus neutralization [38] was 5 ng/mL. For the same binder, the IC50, pseudovirus neutralization [39] was 1.46 µg/mL, the IC50, pseudovirus neutralization [40] was 2 ng/mL and the IC80, pseudovirus neutralization [41] was 0.01 µg/mL. For the same binder, the IC50, pseudovirus neutralization [42] was greater than 50 µg/mL, the IC50, pseudovirus neutralization [43] was 4 ng/mL and the IC50, pseudovirus neutralization [44] was greater than 50 µg/mL. For the same binder, the IC50, pseudovirus neutralization [45] was 0.119 µg/mL, the IC50, pseudovirus neutralization [46] was 6 ng/mL and the IC50, pseudovirus neutralization [47] was 0.01 µg/mL. The IC80, pseudovirus neutralization [48] was 0.047 µg/mL and the IC80, pseudovirus neutralization [49] was 7.22 µg/mL.
